Molecular target: T1, epidermal growth factor receptor (EGF-R) (UniProt P00533 25-1210)
T1 construct: also called EGF receptor
Assay: co-immunoprecipitation with mAb 108.1 from 293 transfectants, immunoblot with anti-PTP antisera
Description: To standardize the experimental parameters, three chimeric RPTKs having EGF-R extracellular domains were tested (HER1-2, EK-R, EP-R) (Seedorf, K. et al., *J. Biol Chem.* 266:12424 (1991)), as was EGF-R itself (FIG. 8).
The precipitates were extensively washed, boiled in SDS sample buffer, and analyzed by 7.5% SDS-PAGE.

B1: PTP 1C protein tyrosine phosphatase (mouse) (enzyme)
chain: not shown
notes: Overexpressed transiently in human 293 cells
Q: Does B1 bind?
A: no binding

From patent US6548641 (MAX PLANCK GESELLSCHAFT ZUR FORDERUNG DER WISSENSCHAFTEN E V, dated 2003)
